Source: patent CN1649900A
Where no end group is shown, it is not given here. [ ]: non-standard residue; d: D form. sY = N[C@@H](Cc1ccc(OS(=O)(=O)O)cc1)C(=O)O

Assays:
[1] = target: Y1 scFv (human single-chain Fv antibody fragment Y1); assay: competition FACS on washed platelets; peptide 200μM
[2] = target: Y1 scFv (human single-chain Fv antibody fragment Y1); assay: competition ELISA on glycocalicin, peptide taken as 2.5μM
[3] = target: Y1 scFv (human single-chain Fv antibody fragment Y1); assay: competition FACS on washed platelets; peptide 2.5μM
[4] = target: Y1 scFv (human single-chain Fv antibody fragment Y1); assay: competition ELISA on glycocalicin; first of three values, peptide taken as 200μM
[5] = target: Y1 scFv (human single-chain Fv antibody fragment Y1); assay: competition ELISA on glycocalicin, peptide taken as 25μM
[6] = target: glycocalicin purified from human platelets (soluble extracellular fragment of GPIbα) (human) (UniProt P07359); assay: ELISA on glycocalicin
[7] = target: human platelet glycoprotein Ibα (GPIbα) on platelets or in platelet lysates (human) (UniProt P07359); assay: FACS on washed platelets, control without peptide
[8] = target: human platelet glycoprotein Ibα (GPIbα) on platelets or in platelet lysates (human) (UniProt P07359); assay: cell-based or functional assay
[9] = target: Y1 scFv (human single-chain Fv antibody fragment Y1); assay: competition ELISA, Y1 scFv on glycocalicin
[10] = target: Y1 scFv (human single-chain Fv antibody fragment Y1); assay: competition ELISA on glycocalicin; peptide 2.5μM
[11] = target: Y1 scFv (human single-chain Fv antibody fragment Y1); assay: competition ELISA on glycocalicin; peptide 200μM
[12] = target: Y1 scFv (human single-chain Fv antibody fragment Y1); assay: competition ELISA on glycocalicin; peptide 0.5μM
[13] = target: Y1 scFv (human single-chain Fv antibody fragment Y1); assay: competition ELISA on glycocalicin; peptide 25μM
[14] = target: Y1 scFv (human single-chain Fv antibody fragment Y1); assay: competition ELISA on glycocalicin; peptide 200μM; conditions: remark: other sources report otherwise
[15] = target: Y1 scFv (human single-chain Fv antibody fragment Y1); assay: competition ELISA on glycocalicin; peptide 0.5μM; conditions: remark: other sources report otherwise
[16] = target: Y1 scFv (human single-chain Fv antibody fragment Y1); assay: competition ELISA on glycocalicin; peptide 25μM; conditions: remark: other sources report otherwise
[17] = target: Y1 scFv (human single-chain Fv antibody fragment Y1); assay: competition ELISA on glycocalicin; peptide 2.5μM; conditions: remark: other sources report otherwise
[18] = target: Y1 scFv (human single-chain Fv antibody fragment Y1); assay: competition FACS on washed platelets; peptide 2.5μM; conditions: remark: other sources report otherwise
[19] = target: Y1 scFv (human single-chain Fv antibody fragment Y1); assay: competition FACS on washed platelets; peptide 200μM; conditions: remark: other sources report otherwise

B1: P-2-S, sulfated synthetic peptide of GPIbα residues 273-285 (peptide)
peptide: TDL[sY]D[sY][sY]PEEDTE
**Q.** B1 was tested. Which residual binding of Y1 (% of baseline, Geo mean) [1] did it give?
**A.** Its residual binding of Y1 (% of baseline, Geo mean) is 7%.

**Q.** What about the residual binding of Y1 (% of baseline) [2] of the same binder?
**A.** The residual binding of Y1 (% of baseline) was 78%.

**Q.** What about the residual binding of Y1 (% of baseline, Geo mean) [3] of the same binder?
**A.** Its residual binding of Y1 (% of baseline, Geo mean) is 61%.

**Q.** What about the residual binding of Y1 (% of baseline) [4] of the same binder?
**A.** The residual binding of Y1 (% of baseline) was 15%.

**Q.** And the residual binding of Y1 (% of baseline) [5]?
**A.** The residual binding of Y1 (% of baseline) was 52%.

B2: CONY1, Y1 scFv monomer in which the myc tag is deleted or replaced by Lys-Ala-Lys (KAK) (scFv)
scFv: EVQLVESGGGVVRPGGSLRLSCAASGFTFDDYGMSWVRQAPGKGLEWVSGINWNGGSTGYADSVKGRFTISRDNAKNSLYLQMNSLRAEDTAVYYCARMRAPVIWGQGTLVTVSRGGGGSGGGGSGGGGSSELTQDPAVSVALGQTVRITCQGDSLRSYYASWYQQKPGQAPVLVIYGKNNRPSGIPDRFSGSSSGNTASLTITGAQAEDEADYYCNSRDSSGNHVVFGGGTKLTVLG
**Q.** With B2 as the binder, how does the concentration needed to reach 0.8 OD units [6] read?
**A.** The concentration needed to reach 0.8 OD units was 12.8 微克/毫升.

B3: Y1 scFv (human single-chain Fv antibody fragment Y1) (scFv)
scFv: EVQLVESGGGVVRPGGSLRLSCAASGFTFDDYGMSWVRQAPGKGLEWVSGINWNGGSTGYADSVKGRFTISRDNAKNSLYLQMNSLRAEDTAVYYCARMRAPVIWGQGTLVTVSRGGGGSGGGGSGGGGSSELTQDPAVSVALGQTVRITCQGDSLRSYYASWYQQKPGQAPVLVIYGKNNRPSGIPDRFSGSSSGNTASLTITGAQAEDEADYYCNSRDSSGNHVVFGGGTKLTVLGAAAEQKLISEEDLNGAA
**Q.** For B3, which residual binding of Y1 (% of baseline, Geo mean) [7] is on record?
**A.** The residual binding of Y1 (% of baseline, Geo mean) was 114%.

**Q.** And the 凝集作用%; washed platelets, ristocetin; Y1 scFv 12.5微克/毫升 [8]?
**A.** Its 凝集作用%; washed platelets, ristocetin; Y1 scFv 12.5微克/毫升 is 67%.

**Q.** What about the 凝集作用%; washed platelets, ristocetin; Y1 scFv 14微克/毫升 [8] of the same binder?
**A.** Its 凝集作用%; washed platelets, ristocetin; Y1 scFv 14微克/毫升 is 92%.

**Q.** What about the 凝集作用%; washed platelets, ristocetin; Y1 scFv 25微克/毫升 [8] of the same binder?
**A.** Its 凝集作用%; washed platelets, ristocetin; Y1 scFv 25微克/毫升 is 23%.

**Q.** And the 抑制百分比%; platelet-rich plasma, ristocetin; Y1 scFv25微克/毫升 [8]?
**A.** The 抑制百分比%; platelet-rich plasma, ristocetin; Y1 scFv25微克/毫升 was 13%.

**Q.** What about the 抑制百分比%; ristocetin-induced agglutination of washed platelets; Y1 scFv 25微克/毫升 [8] of the same binder?
**A.** The 抑制百分比%; ristocetin-induced agglutination of washed platelets; Y1 scFv 25微克/毫升 was 77%.

**Q.** And the 抑制百分比%; ristocetin-induced aggregation in platelet-rich plasma; Y1 scFv50微克/毫升 [8]?
**A.** The 抑制百分比%; ristocetin-induced aggregation in platelet-rich plasma; Y1 scFv50微克/毫升 was 80%.

**Q.** And the 抑制百分比%; washed platelets, ristocetin; Y1 scFv 12.5微克/毫升 [8]?
**A.** Its 抑制百分比%; washed platelets, ristocetin; Y1 scFv 12.5微克/毫升 is 33%.

**Q.** What about the 抑制百分比%; washed platelets, ristocetin; Y1 scFv 14微克/毫升 [8] of the same binder?
**A.** Its 抑制百分比%; washed platelets, ristocetin; Y1 scFv 14微克/毫升 is 8%.

**Q.** What about the 聚集作用%; platelet-rich plasma, ristocetin; Y1 scFv25微克/毫升 [8] of the same binder?
**A.** The 聚集作用%; platelet-rich plasma, ristocetin; Y1 scFv25微克/毫升 was 87%.

**Q.** What about the 聚集作用%; platelet-rich plasma, ristocetin; Y1 scFv50微克/毫升 [8] of the same binder?
**A.** The 聚集作用%; platelet-rich plasma, ristocetin; Y1 scFv50微克/毫升 was 20%.

B4: P-Y*YY, PSGL-1 N-terminal peptide sulfated on the first tyrosine (peptide)
peptide: QATE[sY]EYLDYDFLPETE
**Q.** For B4, which peptide concentration at which Y1 binding is effectively inhibited [9] is on record?
**A.** The peptide concentration at which Y1 binding is effectively inhibited was 100 µM.

B5: P-1-S, sulfated synthetic peptide of GPIbα residues 268-285 (peptide)
peptide: GDEGDTDL[sY]D[sY][sY]PEEDTE
**Q.** What does the source list for B5?
**A.** residual binding of Y1 (% of baseline, Geo mean) [1]: 5%; residual binding of Y1 (% of baseline) [10]: 62%; residual binding of Y1 (% of baseline) [11]: 0%; residual binding of Y1 (% of baseline) [12]: 89%; residual binding of Y1 (% of baseline, Geo mean) [3]: 41%; residual binding of Y1 (% of baseline) [13]: 25%

B6: P-YYY*, PSGL-1 N-terminal peptide sulfated on the third tyrosine (peptide)
peptide: QATEYEYLD[sY]DFLPETE
**Q.** For B6, which peptide concentration at which Y1 binding is effectively inhibited [9] is on record?
**A.** Its peptide concentration at which Y1 binding is effectively inhibited is 1 µM.

B7: P-3-S, sulfated synthetic peptide of GPIbα residues 268-280 (peptide)
peptide: GDEGDTDL[sY]D[sY][sY]P
**Q.** How did the residual binding of Y1 (% of baseline, Geo mean) [1] turn out when B7 was run?
**A.** The residual binding of Y1 (% of baseline, Geo mean) was 26%.

**Q.** What about the residual binding of Y1 (% of baseline) [2] of the same binder?
**A.** The residual binding of Y1 (% of baseline) was 80%.

**Q.** What about the residual binding of Y1 (% of baseline, Geo mean) [3] of the same binder?
**A.** Its residual binding of Y1 (% of baseline, Geo mean) is 82%.

**Q.** What about the residual binding of Y1 (% of baseline) [4] of the same binder?
**A.** The residual binding of Y1 (% of baseline) was 21%.

**Q.** And the residual binding of Y1 (% of baseline) [5]?
**A.** Its residual binding of Y1 (% of baseline) is 67%.

B8: P-1, non-sulfated synthetic peptide of GPIbα residues 268-285 (peptide)
peptide: GDEGDTDLYDYYPEEDTE
**Q.** How did the residual binding of Y1 (% of baseline) [14] turn out when B8 was run?
**A.** The residual binding of Y1 (% of baseline) was 61%.

**Q.** And the residual binding of Y1 (% of baseline) [15]?
**A.** Its residual binding of Y1 (% of baseline) is 88%.

**Q.** What about the residual binding of Y1 (% of baseline) [16] of the same binder?
**A.** The residual binding of Y1 (% of baseline) was 71%.

**Q.** What about the residual binding of Y1 (% of baseline) [17] of the same binder?
**A.** Its residual binding of Y1 (% of baseline) is 94%.

**Q.** What about the residual binding of Y1 (% of baseline, Geo mean) [18] of the same binder?
**A.** Its residual binding of Y1 (% of baseline, Geo mean) is 106%.

**Q.** What about the residual binding of Y1 (% of baseline, Geo mean) [19] of the same binder?
**A.** Its residual binding of Y1 (% of baseline, Geo mean) is 87%.

B9: EGR negative control peptide (peptide)
peptide: REEGRQHFFLLEGRSSYS
**Q.** B9 was tested. Which residual binding of Y1 (% of baseline, Geo mean) [1] did it give?
**A.** Its residual binding of Y1 (% of baseline, Geo mean) is 119%.

**Q.** And the residual binding of Y1 (% of baseline) [10]?
**A.** The residual binding of Y1 (% of baseline) was 100%.

**Q.** And the residual binding of Y1 (% of baseline) [11]?
**A.** The residual binding of Y1 (% of baseline) was 85%.

**Q.** What about the residual binding of Y1 (% of baseline) [12] of the same binder?
**A.** The residual binding of Y1 (% of baseline) was 121%.

**Q.** What about the residual binding of Y1 (% of baseline, Geo mean) [3] of the same binder?
**A.** The residual binding of Y1 (% of baseline, Geo mean) was 96%.

**Q.** What about the residual binding of Y1 (% of baseline) [13] of the same binder?
**A.** The residual binding of Y1 (% of baseline) was 89%.
